Measured values taken from patent publication US20190153113A1, “CD39 VASCULAR ISOFORM TARGETING AGENTS” (INNATE PHARMA, priority 2015, published 2019).

T1: Recombinant human CD39-L3 (NTPDase3, ENTPD3) (human, UniProt O75355 44-485, limits assumed)
T1 construct: Coated in ELISA
T1 sequence: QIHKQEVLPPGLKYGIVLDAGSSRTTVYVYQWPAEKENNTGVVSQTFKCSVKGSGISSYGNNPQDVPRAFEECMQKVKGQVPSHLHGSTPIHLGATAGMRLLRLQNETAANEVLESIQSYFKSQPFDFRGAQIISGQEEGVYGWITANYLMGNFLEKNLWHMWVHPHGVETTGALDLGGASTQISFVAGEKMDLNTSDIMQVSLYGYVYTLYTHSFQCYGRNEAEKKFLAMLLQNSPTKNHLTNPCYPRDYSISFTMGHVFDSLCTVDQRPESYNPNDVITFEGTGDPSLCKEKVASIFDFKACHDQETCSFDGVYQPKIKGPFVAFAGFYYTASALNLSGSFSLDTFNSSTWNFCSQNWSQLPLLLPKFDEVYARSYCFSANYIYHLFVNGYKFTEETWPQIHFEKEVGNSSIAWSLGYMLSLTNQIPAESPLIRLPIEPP

T2: Human CD39 (vascular CD39, NTPDase1, ENTPD1) expressed at the cell surface (human, UniProt P49961 1-510)
T2 sequence: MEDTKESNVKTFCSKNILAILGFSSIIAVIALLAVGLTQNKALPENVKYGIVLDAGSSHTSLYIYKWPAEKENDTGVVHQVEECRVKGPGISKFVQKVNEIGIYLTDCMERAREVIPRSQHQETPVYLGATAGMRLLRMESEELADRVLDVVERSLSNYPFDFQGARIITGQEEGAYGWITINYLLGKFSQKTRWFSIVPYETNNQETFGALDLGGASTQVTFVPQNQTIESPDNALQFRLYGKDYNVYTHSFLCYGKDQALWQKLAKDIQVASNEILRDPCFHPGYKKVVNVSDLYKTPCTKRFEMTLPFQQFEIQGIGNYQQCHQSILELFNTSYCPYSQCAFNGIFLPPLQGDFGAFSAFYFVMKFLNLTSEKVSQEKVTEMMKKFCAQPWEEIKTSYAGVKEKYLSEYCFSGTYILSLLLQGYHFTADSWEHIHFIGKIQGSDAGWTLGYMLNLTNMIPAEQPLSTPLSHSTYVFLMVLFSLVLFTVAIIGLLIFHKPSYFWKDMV

T3: CD39 mutant 2A (V81S, E82A, R111A, V115A) (human, UniProt P49961 1-510)
T3 construct: Transfected in HEK293T cells
T3 chain: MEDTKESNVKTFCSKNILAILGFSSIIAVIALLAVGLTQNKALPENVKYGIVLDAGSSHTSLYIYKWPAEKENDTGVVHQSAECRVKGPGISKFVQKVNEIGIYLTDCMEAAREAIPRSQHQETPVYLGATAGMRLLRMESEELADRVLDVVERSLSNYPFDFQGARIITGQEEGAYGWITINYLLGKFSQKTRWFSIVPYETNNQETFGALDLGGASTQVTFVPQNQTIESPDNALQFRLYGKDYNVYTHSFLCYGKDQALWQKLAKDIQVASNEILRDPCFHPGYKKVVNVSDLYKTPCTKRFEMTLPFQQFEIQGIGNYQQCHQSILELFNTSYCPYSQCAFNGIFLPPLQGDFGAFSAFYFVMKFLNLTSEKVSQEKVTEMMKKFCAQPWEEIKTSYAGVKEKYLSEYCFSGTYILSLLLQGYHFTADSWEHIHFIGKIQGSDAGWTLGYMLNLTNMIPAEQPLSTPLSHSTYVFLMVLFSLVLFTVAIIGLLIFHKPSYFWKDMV


Tests used:
[1] = Stability in reference formulation, thermal shift stability assay (aggregation temperature); format: physicochemical; conditions: in words
Protocol: All antibodies were tested for stability in the following reference formulation at a concentration of approximatively 7 mg/mL: pH 6.0; histidine buffer (10 mM); sucrose (200 mM); NaCl (50 mM); Polysorbate 80 (PS80) (0.2 g/L). […] So for this study the concentration is set at 0.2 g/L.
The stability of the formulations was monitored in two storage conditions (at +5° C.±3° C. and at +40±3° C. For each study, 3 times point were performed: TO, T15D (15 days) and T1M (1 month). A freeze thaw (F/T) and a thermal shift stability assay (TSSA) were conducted for the format comparison. To perform F/T cycles, the samples were frozen at least 2 hours at −20° C. and thawed at least 1 hour at room temperature, the F/T cycle is repeated three times and samples are tested 24h after the last Freeze/Thaw cycle. At each time point, the following tests were performed: • Particulate Matter (MFI) • Visual Inspection (Appearance) • Impurities (SE-HPLC) • Turbidity (400 nm) • Protein Concentration (280 nm) (performed with Nanodrop, Thermo Fisher Scientific Inc.)
Aggregation temperature is correlated with the intrinsic stability. The higher the TAgg, the higher the stability of the protein. […]

[2] = target: T1, Recombinant human CD39-L3 (NTPDase3, …); test: ELISA on coated RechuCD39-L3, OD 450 nm [top panel CHS2-I-391]
Protocol: Wells were washed in TBS Tween 20, and further saturated 2H at RT in TBS Blocking buffer. Dose range concentration of primary antibody was incubated in TBS blocking buffer for 2h at RT. Wells were washed in TBS Tween 20. […] Optical density was measured on Enspire at OD=450.

[3] = target: T2, Human CD39 (vascular CD39, NTPDase1, …); test: cell-based or functional assay
[4] = target: T2, Human CD39 (vascular CD39, NTPDase1, …); test: flow cytometry on HEK cells expressing human CD39, antibody 99 nM to 0.045 nM (FIG. 1 legend says ELISA)
Protocol: Briefly, 1×10⁵ HEK-huCD39or cynoCD39 cells were incubated with various concentration of unlabeled anti-CD39 antibody or isotype control (IC) from 99 nM to 0.045 nM, for 30 minutes at 4° C. After washes, cells were incubated with Goat anti-mouse H+L labeled secondary antibody for 30 min at 4° C.

[5] = target: T3, CD39 mutant 2A (V81S, E82A, R111A, …); test: flow cytometry, HEK293T cells transfected with mutant 2A

Row | binding result [2] | EC50 (inhibition of 50% of the enzymatic activity of CD39 expressed by 100,000 Ramos cells), AMP generated, Maldi TOF [3] | EC50 [4] | binding result [5] | Molecule | stability (aggregation) [1]
1 | – | – | – | – | I-392: anti-CD39 antibody, VH SEQ ID NO: 8 and VL SEQ ID NO: 9, chimeric human IgG1 with N297Q mutation (antibody, V domains shown) VH: QIQLVQSGPEVKKPRETVKISCKASGYTFTHYGMNWVKQAPGKGLKWMGWINTYTGEPTYADDFKGRFAFSLEASASTAYLQINNLKNEDTATYFCARRRYEGNYVFYYFDYWGQGTTLTVSS VL: DIQMTQSPASLSASVGETVTITCRASENIYSYFSWYQQKQGKSPQLLVYTAKTLAEGVPSRFSGSGSGTQFSLKINSLQPEDFGSYYCQHHYVTPYTFGGGTKLEIK | relatively low inherent stability
2 | no binding (tested: 50 ug/ml) | 1.2 nM | 14.9 nM | binds | Antibody I-391, Fc silent recombinant chimeric human IgG1 with heavy chain N297Q mutation (antibody, V domains shown) VH: QIQLVQSGPELKKPGETVKISCKASGYTFRNYGMNWVKQAPGKGLKWMGWINTYTGEPTYADDFKGRFAFSLATSASTAYLQISNLKNEDTATYFCARKAYYGSNYYFDYWGQGTTLTVSS VL: DIVMTQSHKFMSTSVGDRVSITCKASQDVSTAVAWYQQKPGQSPKLLIYSASYRYTGVPDRFTGSGSGTDFTFTISTVQAEDLAVYYCQQHYTTPPYTFGGGTKLEIKR | –
